Results from patent US20080248043A1 (Amgen, published 2008).
Changes are numbered by the printed parent chain.

B1: 1B5 (antibody, V domains shown)
VH: QVQLVESGGGVVQPGRSLRLSCAASGFTFSSYGMHWVRQAPGKGLEWVAVIWYDGSNKYYADSVKGRFTISRDNSKNTLYLQMNSLRAEDTAVYYCARGDFYWFDPWGQGTLVTVSS
VL: DIQMTQSPSSLSASVGDRVTITCRASQGIRSDLGWYQQRPGKTPKRLIYAASSLQSGVPSRFSGSGSGTEFTLTISSLQPEDFATYYCQQYNSYPLTFGGGTKVEIK
B2: 3F3 (antibody, V domains shown)
VH: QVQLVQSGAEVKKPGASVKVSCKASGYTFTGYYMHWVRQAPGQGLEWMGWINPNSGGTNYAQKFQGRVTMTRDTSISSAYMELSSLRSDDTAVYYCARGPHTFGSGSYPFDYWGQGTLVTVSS
VL: B1 VL with K42N
B3: 4A10 (antibody, V domains shown)
VH: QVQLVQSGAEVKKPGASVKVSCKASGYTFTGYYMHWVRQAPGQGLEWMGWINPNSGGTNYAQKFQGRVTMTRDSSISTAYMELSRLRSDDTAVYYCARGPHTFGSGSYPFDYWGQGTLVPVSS
VL: B1 VL with M4L
B4: 4E2 (antibody, V domains shown)
VH: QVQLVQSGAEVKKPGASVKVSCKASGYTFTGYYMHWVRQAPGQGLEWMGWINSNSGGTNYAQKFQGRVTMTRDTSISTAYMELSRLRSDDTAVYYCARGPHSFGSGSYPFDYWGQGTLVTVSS
VL: B1 VL
B5: 5A5 (antibody, V domains shown)
VH: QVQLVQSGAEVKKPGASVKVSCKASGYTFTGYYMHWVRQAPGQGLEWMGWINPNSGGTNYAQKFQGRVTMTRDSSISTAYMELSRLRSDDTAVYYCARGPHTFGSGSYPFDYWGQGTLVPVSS
VL: B1 VL with M4L
B6: 6C2 (antibody, V domains shown)
VH: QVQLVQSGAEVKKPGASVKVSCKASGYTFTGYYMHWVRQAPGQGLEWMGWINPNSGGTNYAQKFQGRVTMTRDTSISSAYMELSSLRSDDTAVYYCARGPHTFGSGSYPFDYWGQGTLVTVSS
VL: B1 VL with K42N
B7: 5D6 (antibody, V domains shown)
VH: QVQLVQSGAEVKKPGASVKVSCKASGYTFTSYGISWVRQAPGQGLEWMGWISAYNGNTNYAQKLQGRVTMTTDTSTNTAYMELRSLRSDDTAVYYCAVGRYLDYWGQGTLVTVSS
VL: B1 VL with G28D, S31N, R39K, T43A, Q89L
B8: 5E4 (antibody, V domains shown)
VH: QVHLVQSGAEVKKPGASVKVSCKASGYTFTGYYVHWVRQAPGQGLEWMGWINPNSGGTNYAQKFQGRVTMTRDTSISTAYMELSRLRSDDTAVYFCAGGRYLDYWGQGTLVTVSS
VL: B1 VL with S31N, R39K, T43A, Q89L, L96I, G100Q, K103R, V104L
B9: 3C7 (antibody, V domains shown)
VH: QVQLVESGGGVVQPGTSLRLSCAASGFTFSSYGIHWVRQAPGKGLEWVAVIWYDGSNKFYADSVKGRFTISRDNSKNTLYLQMNSLRAEDTAVYYCARDPLGYCSSTSCSYFDYWGQGTLVTVSS
VL: DIQMTQSPSSVSASVGDRVTITCRASQGISNWLAWYQQKPGKAPKLLIYAASSLQSGVPSRFSGSGSGTDFTLTIRSLQPEDFATYYCQQANNFPLTFGGGTKVEIK
B10: 6B1 (antibody, V domains shown)
VH: B9 VH with Y60H
VL: B9 VL with R76S
B11: 3H12 (antibody, V domains shown)
VH: QVQLQESGPGLVKPSETLSLTCTVSDGSISSFYWSWIRQPPGKGLEWIGYIYYSGSTNYNPSLKSRVTISVDTSKNQFSLKLSSVTAADTAVYYCARDYDILTGYSNYYGMDVWGQGTTVTVSS
VL: B1 VL with S31N, R39K, T43A, Q89L, Y91H, L96F, G100P, V104L, E105D

biological target: S1-Ig (261-672) (SARS-CoV; human, UniProt P59594 261-672); assay: ELISA, coated S1-IgG 261-672

Binder	Reactivity S1-IgG (ELISA OD) [OD]
B1	0.11
B2	0.325
B3	0.567
B4	0.551
B5	0.337
B6	0.586
B7	0.355
B8	0.298
B9	0.357
B10	0.369
B11	0.09

biological target: T1, S1-Ig (318-510) (SARS-CoV; human, UniProt P59594 318-510); assay: ELISA, coated S1-IgG 318-510

Binder	Reactivity S1-IgG (ELISA OD) [OD]
B1	0.191
B2	1.89
B3	1.79
B4	1.84
B5	2.31
B6	1.85
B7	2.12
B8	2.27
B9	2.19
B10	2.09
B11	1.3

biological target: S1-Ig (12-672) (SARS-CoV; human, UniProt P59594 12-672); assay: ELISA, coated S1-IgG 12-672

Binder	Reactivity S1-IgG (ELISA OD) [OD]
B1	0.463
B2	1.07
B3	1.01
B4	0.019
B5	0.986
B6	1
B7	0.747
B8	0.735
B9	1.09
B10	1.13
B11	0.185

biological target: S1-Ig (12-510) (SARS-CoV; human, UniProt P59594 12-510); assay: ELISA, coated S1-IgG 12-510

Binder	Reactivity S1-IgG (ELISA OD) [OD]
B1	1.29
B2	1.35
B3	1.52
B4	1.52
B5	1.19
B6	1.6
B7	1.31
B8	1.2
B9	1.42
B10	1.17
B11	0.318

biological target: T1, S1-Ig (318-510); assay: ELISA on coated S1-Ig fragment

Binder	binding result
B1	no binding
